In PMC6945063 (2019):

Molecular target: His‐GABARAP‐L2 S87/88D (human, UniProt P60520 1-117, S87/88D | S87/88D)
Assay: BLI

B1: GST‐ATG4A (enzyme)
chain: MESVLSKYEDQITIFTDYLEEYPDTDELVWILGKQHLLKTEKSKLLSDISARLWFTYRRKFSPIGGTGPSSDAGWGCMLRCGQMMLAQALICRHLGRDWSWEKQKEQPKEYQRILQCFLDRKDCCYSIHQMAQMGVGEGKSIGEWFGPNTVAQVLKKLALFDEWNSLAVYVSMDNTVVIEDIKKMCRVLPLSADTAGDRPPDSLTASNQSKGTSAYCSAWKPLLLIVPLRLGINQINPVYVDAFKECFKMPQSLGALGGKPNNAYYFIGFLGDELIFLDPHTTQTFVDTEENGTVNDQTFHCLQSPQRMNILNLDPSVALGFFCKEEKDFDNWCSLVQKEILKENLRMFELVQKHPSHWPPFVPPAKPEVTTTGAEFIDSTEQLEEFDLEEDFEILSV
  Kd: 24 µM
